Test results taken from the supplement of paper PMC9170038.

System: K4 kissing-loop RNA reporter
Experiment: apparent KD of K4 kissing-loop reporter; higher = weaker reporter binding
Settings: Eterna round: R107
Protocol: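 RNA-MaP round R107: designed RNA switches with theophylline, tryptophan, arginine or FMN aptamers are transcribed on-chip within common flanks. They are titrated with a labelled K4 kissing-loop RNA reporter in RNA-MaP buffer (100 mM Tris pH 7.5, 80 mM KCl, 4 mM MgCl2), without ligand or with the indicated ligand. Median apparent KD per design.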

[1] = input ligand: theophylline 20 uM
[2] = input ligand: tryptophan 2.4 mM
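Also: bound reporter read as fluorescence of individual clusters on recovered sequencing chips by microscopy, with normalized cluster intensities fitted with a binding model.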

Sequence | apparent KD of K4 kissing-loop reporter (input ligand: FMN 200 uM) [nM] | apparent KD of K4 kissing-loop reporter (input ligand: arginine 13.2 mM) [nM] | apparent KD of K4 kissing-loop reporter (input ligand: none) [nM] | apparent KD of K4 kissing-loop reporter [1] [nM] | apparent KD of K4 kissing-loop reporter [2] [nM]
ACUGAAAGAUCUGAUACCAGACUUUUUGUAUUUAUUAAAACUAGUGAUGUUAGUUUAUCUGUCCCUUGGCAGCAGUUUCUACAGA [JR_Nu_ExcTheophyB_Sub023] | 128 | 132 | 144 | 134 | 117
ACUUUGGGCCCAGUGAUGUUGGGUCCAGAUACCAGACGUAAAUAAGUCCCUUGGCAGCUGCGUACUAACUAGCACAGGAGGGUCC [Edleaes] | 135 | 143 | 150 | 154 | 141
AGAACUGUCUGAGAUACCAGCUAAGGAGUGAUGUUCCUAAGUCCACGAAAGUGGACUCAUAGCCCUUGGCAGCUCAGACAGUUCA [#24 K4 Theophylline B Same State] | 1150 | 675 | 815 | 565 | 963
AGAACUGUCUGGGAUACCAGCCGAGGAGUGAUGUUCCGGCUCGACGAAACGUCGAGCCACGGCCCUUGGCAGCUCAGACAGUUCA [#21 K4 Theophylline B Same State] | 674 | 332 | 1050 | 1250 | 759
AGACUACCACACUGUCAAUAGACAGUGAACUCGGAUAUGCUGAUAAGCAGAAGGAGUGAUGUUCCCAGGUAGUCAAUAAAAUAAU [FmnAX 13 C32+C66] | 135 | 111 | 144 | 233 | 142
AGAGCGGUCGAAGGAUAUGAGACAACCAACGGUGAGUGAUGUUUGCCGAGUAAACCUCUAGUUGCGUCAGAAGGUCGGCUCAGUC [theeternabot_sameState_KL_FMN_B_25] | 595 | 460 | 633 | 625 | 520
AGAGGUCCCAGUGAUGUUGGUGCGUUUGGUCGAGGACCGGUACGGCCGCCACUCGUUCAUAGUAAGCCCUCUUUAGUGUUUCUAA [theeternabot_sameState_KL_Trp_A_9] | 544 | 336 | 428 | 551 | 186
AGAGUACGAAAGUACUCCUCUACACACUGACGAGGACCGGUACGGCCGCCACUCGAGUUGAGUGAUGUUCGACAGUGUGUAGAGA [Omei KL Tryp A SS C v1] | 120 | 22.3 | 25.6 | 163 | 783
AGAGUGAUGUUUUUUUGAAGUGAGUAAAGUCGAGGACCGGUACGGCCGCCACUCGAGUGAUGUUAGUGAUGUUGAUGUAGUGAUG [xxzmullin] | 110 | 69 | 90.9 | 105 | 75.4
AGAGUUAUGCGAGGAUAUGCGGUUAGUACUCAAAGAGUACUAACGCAGAGUGAUGUUCUGUGAAACACAGAAGGUGCAUAACUCA [Omei KL FMN B SS B v2] | 950 | 116 | 249 | 205 | 148
AGAGUUAUGCGAGGAUAUGCGGUUAGUACUCAAAGAGUACUAACGCAGAGUGAUGUUCUGUGAAACGCAGAAGGUGCAUAACUCA [Omei KL FMN B SS B v3] | 153 | 216 | 280 | 238 | 229
AGAUCUGUAACAGAUACCAGAGGACGAUGAUCGGAUAGUGAUGUUAUCUAUCAGUCGUCGCUCCCUUGGCAGCUGUUACAGAUCA [Omei KL Theo B SS B v2] | 839 | 450 | 776 | 552 | 662
AGAUGACACGGAGGAUAUCCUAAUAUGGGUGAUGUUAGCGAUGUUGAAGGUGUAGUGAUGUUAUGCGGAGAAGGCCGUGUUGUUU [BDazzled - #22 - Exc. FMN B] | 103 | 85.6 | 155 | 102 | 96.1
AGAUUCGACACGGCCGCCACUUCCAGUGGCUGGUGUCAUGGUGCACGUGAGUGAUGUUUAUGUGGAAGGACCGGGUGUUGAGUCU [KL-XTryp-B2 #analogue] | 652 | 472 | 670 | 504 | 1250
AGAUUCGACACGGCCGCCACUUGUGGUGGAUUAUCCUAUGUAAGACAUGAGUGAUGUUCAUGUACAAGGACCGGGUGUUGAGUCU [KL-XTryp-B4 #analogue] | 215 | 177 | 199 | 193 | 425
AGCAGUGAUGUUGCAUUUAUAAUGACCGAUACCAGUAUCGAUAGAUACCCUUGGCAGCGGAUUUCCGCAACGACUAGGAAACUAG [Ex Theophylline A K4 14] | 305 | 359 | 355 | 508 | 283
AGCCGAAAGGCGAGUGCUGUCACUCCGGAAGGAGCGCCCAAAAGGGCAGGUAGGUCGCCGGAGUGAUGUUCCGGUGCAGCACUCA [Omei KL Arginine A Exc B v3] | 572 | 497 | 784 | 533 | 482
AGGACGUGAGAAGAUACCAGAGAAUAAUGCAGUGAUGUUGCUAAAUAUAAUUUAAUAUAACUCCCUUGGCAGCUUAAGUUAGUCU [Theophylline b same state] | 75.2 | 120 | 98.7 | 115 | 73.9
AGGCAAUAUGCGGCCGCCACUUUCAGUGAUGUUGAGACGCGGAAUGUUGUAUAAUAUCGCCACGAAAGGACCGGGCAAGGGAAAG [theeternabot_exclusion_KL_Trp_B_5] | 691 | 434 | 542 | 423 | 355
AGGCACGAGCAAGGAUAUCGAGUAGAGUGAUGUUCUGCCUGGGUUGGCGCGCAAGGGCCUUCCCAGCGAGAAGGUGCUCGUGCCU [#2 Same State - FMN A Attempt #11 (HarryS)] | 221 | 840 | 916 | 682 | 634
AGGCCACACAGCGAGUGAUGUUUGCGUUAUCGAGGACCGGUACGGCCGCCACUCGGCCUUUAGCGCCUUACCAAUUAGGUGUUGC [theeternabot_sameState_KL_Trp_A_46] | 453 | 430 | 731 | 556 | 647
